# Results reported in the DeepSol protein solubility set.
# Test: soluble on expression in E. coli; label from the status in PepcDB or PDB records
row,Sequence,soluble on expression in E. coli
1,MGSDKIHHHHHHMKKYKNSLYVLALCGTMAACKPHIEEPSIDKGSLDVTKYVAVGNSITSGYADNALYYDGQQVSFANLLSGQFSKIGGGEFKQPLVSQTSVGVGSTGGARLKLALKTDCLGNTSLSPVPVAASGDLSIFGNIYSSAGPFNNMGVPGAKSVTTIYHGYGNPGNGLGKFNPFFTRMASNPATASILQDAMAQNPTFFTLFIGSNDVLLYALAGAANDSITPVAGGPGVGFDASMDAIVNTLVSGGAKGAIGNVPDITSLPYFTTVPYNGLVLTSQAQVDALNTAYTPFGITFHLGQNPFIIADAAAPGGRRQITSSEYVLLSVPQDSLKCNQWGSAKPIPNQYILTASEISNIRTAITNYNSKIKNLAAAHGLAFVDVNSFLMMAETGITYNGINLNTTFVSGGAFSLDGVHLTPIGNAMLANEFIKSINMTYGSTLPLIDATKYSGVKFP,not soluble
2,MGSDKIHHHHHHMKLLCSLASPYARCVRSLIRYLGIEDIEEVLVNPMENTAQLLDVNPLGQIPCLITNDGVPIFDSEVIMRYLDTELGAQEMFGGQPYNWVLQCQYSMIKGLIDSAVKLRQEQMREEEGVRSAFWTSRFEQALLRGLMQMEHQSVITQTTIQAPQLTLICLLDYVDFRHPELDWRKVAPATAIWFSEMRDLPAFVETRPQ,not soluble
3,MGSDKIHHHHHHMKLNTLLQRLDQTVPLAFDTSLQNPEITSLQFDDDTTLSLHPTSLYLAVSADQTITLKGSVGKTAQLSLCAQMQLKNESQLAQLFDRAGCLLTSETSLQAQVNQLAIKAITEDFDTILNQAARTLGNPLIVLDLVGQPVAQSTQAPAISDLTAPAITSVQVQQALKKFRPAKDLIPQVILIQQSQLPLLLLCLPLAYRNNALGYLVMPACVRPLTAEQTAFFKAEAKIITSSLIKNRMMPTAASKRDQLLTMLLTEQQSGTFAAQFAKEHATLPTSMVLIKGEPRAGQSLAALKERLKYLLTPLFSQTLITLYHHQCLALVSVDLPTYNNPEFKADLATIADRANCRLIVSNQYTRPEDTIAAYAVCSRTAKLKSQPTHVTMCEDAFFDLMLAQVDHAEILPFFINPAVKALMDHDAENKTELLPTLDAYLESGENLTHTARQLFIHLNTLRYRLKHISDITGIDLKDAETCFKLGASFKVRRYLNHNKLTFTR,not soluble
4,MGSDKIHHHHHHMKNIKIFPKDWLQLHPYKQSTPVDSYYTGIANRIYDIMEKTELVNSFEGEETKQICIRMAAYFEDVISGMGLWRAFILTHKELYGKYLPFYTPDDHYYDDEVNLEDVRFLLWHYTQQYHGYRKGTFVSPDNPANESTGMLIYDLFCKEWTTAPENTRMAKLFALDTRYERQEDYDRLLQWFHYESYILPESARELSDFAHDRWKEQPDLNQEQLNNLLVNSHGMMAYTSKTSLLGLTSPQWLAKILPAEHPDHAVFQNTADESVATLPDDMLEENRQQYETFRKAAGDKLLLYFDKTEDAQTFITETSGLIPAENFHLPEDWQGKKLAIYATPEEGAQVITRDVELIKDENNPFYDANRAAKQALSFFIVKHCSVYFLPELVKRGMLADAQTKSLISPERGKAIIQENWKFLARYFIREYPNR,not soluble
5,MGSDKIHHHHHHMKNNETKVPTSRLSRLSKMGGLASRLAGNVLLEGAKQLSQGKSPSMQQLMMTPKNIGHVADKLSQLRGAAMKVGQMLSMDAGDLVPPELAEILAKLRSDAKAMPHKQLTQLLVQHWGHDWLAPFAQFELRPFAAASIGQVHLAYLDTGEKLAIKIQYPGIRDSIDSDIDNVASLLKVSRLIPANVKLDTLLAEAKAQLHNEADYHFEAQQIALYQQQLGDSPHFIVPKVYPKLSNNSILCMQFVEGVAIESVEHSPQDVRDKVASALMELCFKELFCFQLVQSDPNFANFQYQADSQKIVLLDFGATRTISDTLSQGYMQLMQGAIADDKQQMIQAAQQIGFFQDAIDPQQKQLIIDIFYQACEPLRTQGTYDFGASNLAKRITQAGKAMSTQQNEWHTPPTDAIFIHRKLAGMYLLAAKLNANINVHALFNQVVNSKNE,not soluble
6,MGSDKIHHHHHHMKNNKNEKLKITIVSGFLGSGKTTFLTHYINELLKIDEKITVIMNEFGSFDVDGNHLSELVKVYPLLNGCVCCDMKSDLVQQIEMLSHNHETDHIIIEATGIAHPIELIMACQDPRIVQFVERPHVVSIVDALRFLQRQQYTDSTKRLMEEQLEVSDVLVVNKLDLISVEDRDALKNQLNEVNKYSSKIYTTYGQVNIEELSQFRDQLVMTHTHSHHHGINSMQYTFTTAIDRQLFYQFILRMPDNVLRLKGYVQFKDEPNVTYEFQYSFGMPDYEVINGDYPLTIVLIGEQLDVNRLKNKLDVLQFS,not soluble
7,MGSDKIHHHHHHMKNVVTDPEKVTRILKTATEIFGQQGFIKSKTDQIANQAQVSKGLLFHYFGNKQALYLDAFKYAYHRIYDHMDPKKWQNAPGLAAMMTTAVKYELKLQFKFPAEYRLMMQAYADLPHFPEPLRQQVQQETTAISAEADRIFREKIEQLPRREGLSVDDVFGVVSALIAQQTAVTTRLIASGHYRKFEDLQSVVETMARQLLIVEHGFLPDES,not soluble
8,MGSDKIHHHHHHMKQELALFIKKIIDLPAAEEKKLLAITRVYKVPKGDFYIQIGQIPKKFAFVAKGLFRYVYIDSKGNEFTKNFVPENNFALAYSSMIRHEVSKMAIEALEDSIICEIDYTDWLTLKKGNACWNIFLITILENAFTIKENRERDLLLLDAEQRYETFRQEFPALETRVKQHLIASYLGISPVSLSRIRKKRT,not soluble
9,MGSDKIHHHHHHMKQIAVVSGKGGTGKTTFTASLGVLLENSLLADCDVDASNLYILFPGDPVEEHEYYRGKKAVIDQEKCDRCGICERVCRFDAIIPGEKYGVDQYACEGCNACVVSCPRNAITLVQSLAGRYFFAWSGGKPIVYARLSPGEENSGGLVAEVRKLALEKAKELKRDYVIIDGAPGIGCSATSSIVGVNYVVVVTEPTMSGLHDLKRIVETLKCLKREFGIVINKYDINSVVSREIEDYCLSEGLDLLGKIPFDETVVRASVECKPVVTYENSPAAESIKKIVEKIIEKIS,not soluble
10,MGSDKIHHHHHHMKQNVLLQSILIQLNLLKENYSEDTIKNLMDIPKQLTSNTSYKRNVKEVSHVHIAFDDSTAGCLKHMLGQEERLEEMVVAFSEFFSIGPINKLHMNEGQLARKEWLVNNLTSYDCYFEEEYLPRFKETLEVLHSIPNETPITIWKADNAHEHVGLCFVMAQLKDKKNIRVMNTSEASKEILKLEYVIRGTGELPPENLALIQKSFVKLPYLTVENRMQFEHEWDSLSKSTEFLRIWTDNAVRSVQENYFDQFIIECAKSIGADQEFRKAPRVIGEALGLVEQSVGDTFLEYRLKELIKQEVFEFEGSLDEMRFYSVKLRK,not soluble
11,MGSDKIHHHHHHMKQPNYYQDVKQFHQTFHHPGADQPTAIPLDRGVKRATWTAEEAVVEFLHQSSQNETEFLAAIETFKAGLDQAVKKSLKETYPVTEVERLVGQGDALTDALYFIMGSFVEAGLEPGPLFEIVQQANMAKLGPDGQPIFRESDQKVMKPDGWLPPEPQLEAEVVRQMKEKA,not soluble
12,MGSDKIHHHHHHMKQYGEKFIDEFSKAEFEKLAKQGQLIDVRTEEEYALGHINGSILHPVDEIESFNKEKNKTYYVICRSGNRSANASKYLAKQGYNVINLDGGYKAYEENDSYDTQEEYKSIEIKADRKQFNYRGFQCPGPIVKISQEMKNIEVGDQIEVKVTDPGFPSDIKSWVKQTRHTLVKLDENNNGINAIIQKEKAKDLDINYSAKGTTIVLFSGELDKAVAALIIANGARAAGKDVTIFFTFWGLNALKKVQTVNVKKQGIAKMFDLMLPQKNIRMPLSKMNMFGLGNMMMRYVMKKKNVDSLPTLINQAIEQNIKLIACTMSMDVMGIQKEELRDEVEYGGVGTYIGATENANHNLFI,not soluble
13,MGSDKIHHHHHHMKRINCFIPYGKIEATRQTVAQLAESSLVSQIYLITDDPHAKAIYPCNLIRTENIWSTKTLREIAGYASAHYTLIYTKTEELQLGMYALERFVAIADDTRSGMVYSDYYEKKEGKLNPHPVIDYQKGSLRDDFNFGSLLLYRSSTLQNAIASMDTEYTFAGLYDLRLKVSQNAPLTHINEYLYTEVENDLRKSGEKMFDYVDPKNRSVQIEMEAACTDHLKMIGGYLPPHFKPVRFDEQTFQTEASVIIPVRNRVRTIEDAIRSVLRQEASFPFNLIIIDNHSTDGTSERIQAIAATDLRIIHIQPERDDLGIGGCWNIGIHHSACGKFAIQLDSDDVYSDEHTLRKIVEAFYEQRCAMVVGTYRMTDFDMRTIPPGIIDHKEWTPENGRNNALRINGLGAPRAFYTPLLRKLNLPNTSYGEDYALGLRISREYPIGRIYDVLYLCRRWEDNSDASLDVVKMNNHNIYKDKIRTWELEARLNMERQ,not soluble
